Results published in the DeepSol protein solubility set.

Assay: soluble on expression in E. coli; label from the status in PepcDB or PDB records

Sequence | soluble on expression in E. coli
MSWNCLLPIFVGFFVLFYEGQCQPARWTQQPGGQNPQPGASFPPNMNPVTNGPGSWTQKPGGYNNGPGSGSFKSTKPPRGLVYYQPKNYPYKPGKGGKYMHADPILPNANERLSAQSDQYTVSDGITGDWSKIVANSKGFYVLHPVQTKSEEDIFDPYTIGQVIGYLYEVQEFGGKKPPSGKYTIELMGKKIPDHLKKKRSLFGSPDRTRRATLVFKKKEQVKSTL | not soluble
MGSDKIHHHHHHMISVGKGKIMITPDHNIIKPIAIVLPQFHPIRENNLWWGEGFTEWTNVVKGRPRFRGHYQPHLPKDLGYYDLRLPETRKAQAALATKYGIYGFCYYHYWFNGRRILESPVDAMLESGEPDFPFMLCWANENWTRNWDGSYNKVLLEQKYSKEDFVNHARHLIRYFKDDRYIKIDGRPVFAIYKDDIGEDIEKYLLLFRNELLKNSINVFLCRFERNIGTSRDLNRAFQVFDAGIEFQPLARQFSYLINYNNRLSRRIYKTLKKHFCFCKNIDDVYVYSHLVDNDLKYDFQQGWPIFPGVCPGWDNSARRRDTTAIIFDKSTPEIFKLWVREKIRITDWNLLPERFLFVNAWNEWAEGNHLEPCEKWGTQYLAALQAGINEM | not soluble
MGSDKIHHHHHHMIRIENISKQNSHRLLFIEASAALNKGEKIGLVGPNGAGKTTLFRMITGEELPDEGQVATEKGVTIGYFNQDVGEMSGRSAVAEVMDGAGPVSTVAAELRELEGAMSDPDRMDEMDAIIERYGEVQARYEELDGYALEGRAREVLDGLSFSQEMMDGDVGKLSGGWKMRVALARILLMRPDVMLLDEPSNHLDLESLIWLESFLKNYDGALLMTSHDREFMNRIVTKIIEIDGGSLTSYSGDYGFYEGQRAQNEKQQQAQFERQQAMLAKEIKFIERFKARASHAAQVQSRVKKLDKIDRVEPPRRRQTVAFDFLPAPRSGDDVINIKNVHKAYGSRTIYQGLDFMVRRRERWCIMGINGAGKSTLLKLVAGTTEPDQGTVSIGASVKLGYFAQHAMDVLDGDSTVLQWLEESFPKAGQAPLRALAGCFGFSGDDVEKRCRVLSGGEKARLVMAAMLFDPPNLLVLDEPTNHLDLDTKEMLIKALSAYEGTMLFVSHDRHFLAALSNRVLELTPDGIHQYGGGYTEYVERTGQEAPGLHAA | not soluble
MSRVSTAPSGKPTAAHALLSRLRDHGVGKVFGVVGREAASILFDEVEGIDFVLTRHEFTAGVAADVLARITGRPQACWATLGPGMTNLSTGIATSVLDRSPVIALAAQSESHDIFPNDTHQCLDSVAIVAPMSKYAVELQRPHEITDLVDSAVNAAMTEPVGPSFISLPVDLLGSSEGIDTTVPNPPANTPAKPVGVVADGWQKAADQAAALLAEAKHPVLVVGAAAIRSGAVPAIRALAERLNIPVITTYIAKGVLPVGHELNYGAVTGYMDGILNFPALQTMFAPVDLVLTVGYDYAEDLRPSMWQKGIEKKTVRISPTVNPIPRVYRPDVDVVTDVLAFVEHFETATASFGAKQRHDIEPLRARIAEFLADPETYEDGMRVHQVIDSMNTVMEEAAEPGEGTIVSDIGFFRHYGVLFARADQPFGFLTSAGCSSFGYGIPAAIGAQMARPDQPTFLIAGDGGFHSNSSDLETIARLNLPIVTVVVNNDTNGLIELYQNIGHHRSHDPAVKFGGVDFVALAEANGVDATRATNREELLAALRKGAELGRPFLIEVPVNYDFQPGGFGALSI | soluble
MMTVLRSQIESILLVVDQPASVAALARATEAAPETVTSVLRSMAQEFEDRGSGIEVRESPEGWRLYTVKRNADVVEKFLLDGSHTKLSRAALETLAVVAYRQPATRAQVAAVRGVNVDGVMRTLQLRGLIREVAINPGTEGVNGSAHRYETTELFLDLLGIDSLERLPDLAPLLPDIDSIDEYF | not soluble
MPQGSALSDTERAQLDVMKLLNVSLHEMSRKISRSRHCIRVYLKDPVSYGTSKRAPRRKALSVRDERNVIRAASNSCKTARDIRNELQLSASKRTILNVIKRSGVIVRQKLRPAPLLSADHKLKRLEFAKNNMGTNWSKVVFSDEKKFNLDGPDGCRYYWRDLRKEPMVFSRRNFGGGTVMVWGAFTEKKKLEIQFVSSKMNSTDYQNVLELELSKYLRHYSGKDFRFQQDNATIHVSNSTRDYFKLKKINLLDWPARSPDLNPIENLWGILVRIVYAQNKTYPTVASLKQGILDAWKSIPDNQLKSLVRSMEDRLFEIIRTQGNPINY | not soluble
GSMPHIKGHEGDPCLRSSDCIDGFCCARHFWTKICKPVLHQGEVCTKQRKKGSHGLEIFQRCDCAKGLSCKVWKDATYSSKARLHVCQKI | soluble
MGSDKIHHHHHHMANGLQRLIRSLKLVARYGLIVMNDGLICLPIKQRQVVFESFNGKDVNDNPAAIYRELVATAPEYRTTAYFSVKPREFAALHKKYPQIQLVKRFTPRWVWLMARAEFWVLNSRLPNWWHQNRRTTVIQTWHGTPLKKLGADIEHVAIPGTTTAAYHQEFKTAASRWQYLIAPNQYSQTIFKSAFGFHHQFLSVGYPRNDRLYTTLPAEITDLKQQLLGSTKGPVVTYAPTWRDDMAVRPGVYQFDLPFDLAEFFQHVPANTQLIIRPHYLVKDAIDIHGFEERVHVLAETDITDLYLISDLLITDYSSVMFDFANLQRPQLFFAYDLAHYRDQLRGFYFDYEQEIPGPLVTTASAFYAQLDRWRQDGAFHDYQARQAAFYEKFCSWENGTASRQVVQVMLHGKDEIK | not soluble
MGHHHHHHSHMASGFIEIANKQGLTATLLPFGATLAKLTFPDKNGKNQDLVLGFDTIDEFEKDAASIGKTVGRVANRIKNSTLHFDGKQYTMTPNNGPHYLHGGPNGLGYRKWEVVRHAPESVSFSVRANEQDDGLPGDAKIDVTYTVNDRNQLIIEHHATCDTPGLLALTNHAYWNLDGSDTVAEHFLEMEADEFVEVDDTFCPTGAIRSVTDTGFDFRSGKQLKESGKDAEELLDLDNDLVITKKTPPSTPSTYLRFWSEKSGIELSITTSYPVIHLYASKFLDCKGKKGEHYKANKALAIEPQFHSAAPNFDHFPDVSLRPGDHYCQEIVYTFSHVN | soluble
MIPGSTSGISFSRILSRQTSHQDATQHTDAQQAEIQQAAEDSSPGAEVQKFVQSTDEMSAALAQFRNRRDYEKKSSNLSNSFERVLEDEALPKAKQILKLISVHGGALEDFLRQARSLFPDPSDLVLVLRELLRRKDLEEIVRKKLESLLKHVEEQTDPKTLKAGINCALKARLFGKTLSLKPGLLRASYRQFIQSESHEVEIYSDWIASYGYQRRLVVLDFIEGSLLTDIDANDASCSRLEFGQLLRRLTQLKMLRSADLLFVSTLLSYSFTKAFNAEESSWLLLMLSLLQQPHEVDSLLADIIGLNALLLSHKEHASFLQIFYQVCKAIPSSLFYEEYWQEELLMALRSMTDIAYKHEMAEQRRTIEKLS | not soluble
MRGSTRDQNGTWEMESNENFEGYMKALDIDFATRKIAVRLTQTKVIDQDGDNFKTKTTSTFRNYDVDFTVGVEFDEYTKSLDNRHVKALVTWEGDVLVCVQKGEKENRGWKQWIEGDKLYLELTCGDQVCRQVFKKKLVPR | soluble
GSHMDHLPMPKFGPLAGLRVVFSGIEIAGPFAGQMFAEWGAEVIWIENVAWADTIRVQPNYPQLSRRNLHALSLNIFKDEGREAFLKLMETTDIFIEASKGPAFARRGITDEVLWQHNPKLVIAHLSGFGQYGTEEYTNLPAYNTIAQAFSGYLIQNGDVDQPMPAFPYTADYFSGLTATTAALAALHKVRETGKGESIDIAMYEVMLRMGQYFMMDYFNGGEMCPRMSKGKDPYYAGCGLYKCADGYIVMELVGITQIEECFKDIGLAHLLGTPEIPEGTQLIHRIECPYGPLVEEKLDAWLATHTIAEVKERFAELNIACAKVLTVPELESNPQYVARESITQWQTMDGRTCKGPNIMPKFKNNPGQIWRGMPSHGMDTAAILKNIGYSENDIQELVSKGLAKVED | soluble
MSGMILDELSWRGLIAQSTDLDTLAAEAQRGPMTVYAGFDPTAPSLHAGHLVPLLTLRRFQRAGHRPIVLAGGATGMIGDPRDVGERSLNEADTVAEWTERIRGQLERFVDFDDSPMGAIVENNLEWTGSLSAIEFLRDIGKHFSVNVMLARDTIRRRLAGEGISYTEFSYLLLQANDYVELHRRHGCTLQIGGADQWGNIIAGVRLVRQKLGATVHALTVPLVTAADGTKFGKSTGGGSLWLDPQMTSPYAWYQYFVNTADADVIRYLRWFTFLSADELAELEQATAQRPQQRAAQRRLASELTVLVHGEAATAAVEHASRALFGRGELARLDEATLAAALRETTVAELKPGSPDGIVDLLVASGLSASKGAARRTIHEGGVSVNNIRVDNEEWVPQSSDFLHGRWLVLRRGKRSIAGVERIGLEHHHHHH | soluble
MAHHHHHHMKHIATQHHRGVVADPQPIHRNTRRAVKVQTRPRDQPRDREAVPADRDVRVRWKITLRAEQRVTKCVTGDDDVQRPHSGVRIAQQQQHGAVPPRASIERDVRHVARHRTNQHRQAHAAPAERHVAVAQPRQPAAHSLRNLGVHHVADALTNRRWRWCGRRWRWRWRRGQWRRASRHRRRDARIAVPSSSALALAANDRRRQRCKAVALLRALPARSNRRHVGDAVELQLCRRRQQTSRDRQAPSNEPVTGVNPR | not soluble
MAGDPNSMMIARTLSIFIGTLLLATCSIPTRLNIPTIAITDHPKYKLLLILIDGLRADALEHGQAPQLARLASDGVHARWMTPSYPALTLPNAYTLITGLRPDHHGIVHNTMEDPLLGAFESERQEAISNGRWWGGEPIWVSAEHAGIRSATFLWPGSEASIAGTRPSRWYAYNKHISADTQITQALRWLNERGPDAPRLVILRFEQVNTAGDNFGPDSPQYAAAVNMIDSAIGRLIDSLRQHGKLTDTDVIVVSDQGIAPIPGDHAVPLERIVQLSDVHVVSDGQVLGITPLPGHESKVEAMVLGAHATYDCWRKQALPTHWHYGTHPRIPNIVCQMHEGWNALSAAQITKRNPLQMGGSSGFDPMLPSMRAVFLANGPSFMPNLLLNPINNVDIYPLLARLLGIAMAPNDGNPRALLQALRTSNTANGYTYSKRNALHLEHHHHHH | not soluble
MREKWRKKRMRRLKRKRRAAKK | not soluble
MVKDCSYSILLPTYNERENLPYILYFIEEVFESMGERYEVIVVDDNSPDGTLEVAKKLQQVFGSDKVVLAPRAGKLGLGSAYSHGLQFAKGNFIIIMDADLSHHPKYIADFVRKQREGSFDVVTGTRYRGEGGVFGWNWRRKLTSVGANLLAQLLLNPGVSDLTGSFRLYRRQAFEQLIHRTRSKGYVFQMEIIVLAKKLGLRVGEVPIVFIDRLYGESKLGGREVIQYLSGLLCLMFQK | soluble
MSFVKKTKNFFGLDGEADPYMEHSDAYYDEPRYEPAPAYSAPRYEEPIYASARPRAARPMPTHIVPVRLLTYSDAAIKVGDPFRDGDAVVFDMSDMHKGEAKRIIDFAAGLCFALRGQMRKLDGRIFALVPESASVDENDLKHAAGLIHLEHHHHHH | not soluble
MAAPSMKERQACWGARDLYWRCLDDNAEDAARCQKLRSSFEASCPQQWIKYFDKRRDYLKFKEKFEAGGFQSSQSTENS | soluble
MGDRFDSARHRVEAAAIKAFAGEFDPQPFHLDEEAARHSLFGGLAASGWHTAAITMRLLVTSGLPLAQGIIGAGTELSWPNPTRPGDELHVETTVLAITPSKSRPDRAIVTCQSDTLNQRGEVVQRSTAKVVVFRRPLEHHHHHH | not soluble
MLKGKTIYVRPLEVTDAEENLGLQSENRDFFEQFSMIRADDYYTVEGQRKRITEYQERLEKDEEYHFGIFTASDDRLIGTVSLFQIIRGALQTAFIGYFLDKAHNGKGIMTEAVRLVVDYAFHELKLHRIEAGVMPRNLGSMRVLEKAGFHKEGIARKNVKINGVWEDHQVLAILNPDDEQLEHHHHHH | not soluble
